Test results from paper doi:10.1101/2025.07.21.665923 (bioRxiv, 2025).
Like-named read-outs stand apart in the source and are kept apart here. Each block holds one molecule with its values, some of them ahead of it. Where no end group is shown, it is not given here. TAMRA = tetramethylrhodamine

Assays:
[1] = biological target: NaPi-IIa peptide (15 C-terminal residues of NaPi-IIa), TAMRA-labelled (human (identical in mouse)); test: fluorescence polarisation
[2] = biological target: N-terminally biotinylated URAT1 peptide (human); test: SPR
[3] = biological target: URAT1 peptide (15 C-terminal residues of human URAT1), TAMRA-labelled (human); test: fluorescence polarisation
full-length human NHERF1 = biological target: T1, full-length human NHERF1 (human, UniProt O14745 1-358); test: fluorescence polarisation
T1 sequence (looked up): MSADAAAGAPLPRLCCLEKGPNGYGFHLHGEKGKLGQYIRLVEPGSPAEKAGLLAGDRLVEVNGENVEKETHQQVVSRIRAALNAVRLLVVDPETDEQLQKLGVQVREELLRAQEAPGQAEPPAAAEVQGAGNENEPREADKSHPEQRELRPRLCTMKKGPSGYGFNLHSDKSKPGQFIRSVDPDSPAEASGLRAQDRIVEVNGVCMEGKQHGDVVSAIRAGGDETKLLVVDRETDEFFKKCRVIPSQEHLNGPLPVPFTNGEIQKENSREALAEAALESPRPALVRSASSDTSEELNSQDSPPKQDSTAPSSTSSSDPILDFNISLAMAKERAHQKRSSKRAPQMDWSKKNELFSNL

full-length mouse Nherf1 = biological target: T2, full-length mouse Nherf1 (mouse, UniProt P70441 1-355); test: fluorescence polarisation
T2 sequence (looked up): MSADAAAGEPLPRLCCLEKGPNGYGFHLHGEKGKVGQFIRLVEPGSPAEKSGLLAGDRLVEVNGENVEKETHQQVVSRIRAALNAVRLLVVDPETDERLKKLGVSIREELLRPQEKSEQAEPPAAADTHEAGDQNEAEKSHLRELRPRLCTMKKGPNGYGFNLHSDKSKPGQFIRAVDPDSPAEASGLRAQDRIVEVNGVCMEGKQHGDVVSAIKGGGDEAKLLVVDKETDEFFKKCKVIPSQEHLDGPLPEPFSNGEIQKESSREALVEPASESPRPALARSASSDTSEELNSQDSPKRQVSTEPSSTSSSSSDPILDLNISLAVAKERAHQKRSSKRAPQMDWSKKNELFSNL

full-length mouse Pdzk1 = biological target: T3, full-length mouse Pdzk1 (mouse, UniProt Q9JIL4 1-519); test: fluorescence polarisation
T3 sequence (looked up): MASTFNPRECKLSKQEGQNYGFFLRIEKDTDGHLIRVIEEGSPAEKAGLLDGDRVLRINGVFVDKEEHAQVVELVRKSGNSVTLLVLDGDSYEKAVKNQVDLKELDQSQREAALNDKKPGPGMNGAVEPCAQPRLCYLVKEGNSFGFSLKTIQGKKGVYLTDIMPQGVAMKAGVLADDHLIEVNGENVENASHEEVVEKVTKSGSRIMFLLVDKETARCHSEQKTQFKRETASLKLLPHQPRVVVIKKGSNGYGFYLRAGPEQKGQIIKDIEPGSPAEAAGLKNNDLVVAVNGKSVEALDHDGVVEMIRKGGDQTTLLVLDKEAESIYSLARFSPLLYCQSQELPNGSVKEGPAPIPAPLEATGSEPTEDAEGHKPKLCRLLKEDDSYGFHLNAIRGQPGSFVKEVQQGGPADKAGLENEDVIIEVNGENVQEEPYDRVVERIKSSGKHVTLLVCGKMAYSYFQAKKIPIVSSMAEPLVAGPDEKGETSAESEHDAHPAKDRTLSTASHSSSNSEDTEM

[4] = biological target: T4, full-length human PDZK1 (NHE3 regulatory factor 3, NHERF3) (human, UniProt Q5T2W1 1-519); test: SEC
T4 sequence (looked up): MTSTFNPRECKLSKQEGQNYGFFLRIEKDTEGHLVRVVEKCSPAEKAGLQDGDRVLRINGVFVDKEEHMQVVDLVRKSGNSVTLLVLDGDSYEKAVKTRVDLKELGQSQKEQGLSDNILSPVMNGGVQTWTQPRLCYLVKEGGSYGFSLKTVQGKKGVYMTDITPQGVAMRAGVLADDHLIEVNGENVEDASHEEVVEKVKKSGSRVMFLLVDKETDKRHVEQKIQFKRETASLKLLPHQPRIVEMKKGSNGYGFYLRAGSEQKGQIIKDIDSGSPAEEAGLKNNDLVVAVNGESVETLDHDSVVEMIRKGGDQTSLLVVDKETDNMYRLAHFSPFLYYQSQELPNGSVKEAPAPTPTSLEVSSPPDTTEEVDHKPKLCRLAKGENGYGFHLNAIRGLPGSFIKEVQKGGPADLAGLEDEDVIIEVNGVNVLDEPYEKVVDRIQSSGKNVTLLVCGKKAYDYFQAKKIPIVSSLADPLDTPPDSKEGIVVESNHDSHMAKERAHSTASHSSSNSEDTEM

[5] = biological target: T4, full-length human PDZK1 (NHE3 …); test: SEC; remark: listed apart in the source
[6] = biological target: T4, full-length human PDZK1 (NHE3 …); test: fluorescence polarisation

Kd [1]: 4.4 µM
Molecule: PDZ1 domain of human NHERF1 (1PDZ1), C-terminal His8-tag (domain or fragment)

Kd [2]: 1.1 µM
koff [2]: 0.494 s⁻¹
kon [2]: 448000 M⁻¹ s⁻¹
Kd [1]: 12.5 µM
Kd [3]: 0.16 µM
Molecule: PDZ1 domain of human PDZK1 (3PDZ1), tag-less (domain or fragment)

Kd [1]: > 170 µM
Molecule: PDZ2 domain of human NHERF1 (1PDZ2), C-terminal His8-tag (domain or fragment)

Kd [3]: 22.1 µM
Molecule: PDZ2 domain of human PDZK1 (3PDZ2), C-terminal His8-tag (domain or fragment)

Kd [3]: > 200 µM
Molecule: PDZ3 domain of human PDZK1 (3PDZ3), C-terminal His8-tag (domain or fragment)

Kd [2]: 1.78 µM
koff [2]: 0.631 s⁻¹
kon [2]: 354000 M⁻¹ s⁻¹
Kd [3]: 1.35 µM
Molecule: PDZ4 domain of human PDZK1 (3PDZ4), C-terminal His8-tag (domain or fragment)

Kd (full-length human NHERF1): > 70 µM
Molecule: {TAMRA}-THGTLGNSVLKSTQF [URAT1 peptide (15 C-terminal residues of human URAT1), TAMRA-labelled]

Kd (full-length mouse Nherf1): 0.59 µM
Kd (full-length mouse Pdzk1): 0.026 µM
Molecule: {TAMRA}-THDTPDGSILMSTRL [Urat1 peptide (15 C-terminal residues of murine Urat1), TAMRA-labelled]

stoichiometry N [4]: 1.4 GFP^URAT1 per PDZK1 at the peak maximum
stoichiometry N [5]: 1.5 GFP^URAT1 per PDZK1 at the peak maximum
Molecule: THGTLGNSVLKSTQF (not fully specified) [URAT1 peptide fused to the C-terminus of enhanced green fluorescent protein (GFP^URAT1)]

Kd (full-length mouse Nherf1): 4.9 µM
Kd (full-length mouse Pdzk1): 4 µM
Kd (full-length human NHERF1): 4 µM
Kd [6]: 8.1 µM
Molecule: {TAMRA}-SPRLALPAHHNATRL [NaPi-IIa peptide (15 C-terminal residues of NaPi-IIa), TAMRA-labelled]
